# Results from the supplement of paper PMC10567573.
# B1: NEK8 (parent)
# chain: VTIKHVACGDFFTACLTDRGIIMT
# B2: FUNDC2 (parent)
# chain: YIKVDWQRVEKDMKKAKEQLKIRK
# Variants of: B1
# Experiment: protein stability index of a GFP-peptide fusion (GPS, HEK-293T) (PSI 1-6); higher = more stable
# Settings: c terminus: a fixed tail appended
# 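Also: lentivirally expressed fusions sorted by FACS into six bins by GFP to DsRed ratio, PSI derived from sequencing read proportions per bin multiplied by bin number.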
row,Variant,protein stability index
1,VTIKCVACGDFFTACLTDRGIIMT [H5C],2.12
2,VTIKHVALGDFFTACLTDRGIIMT [C8L],3.14
3,VTIKHVARGDFFTACLTDRGIIMT [C8R],3.18
4,VTIKHVAVGDFFTACLTDRGIIMT [C8V],2.48
5,VTIKHVAAGDFFTACLTDRGIIMT [C8A],3.3
6,VTIKHVANGDFFTACLTDRGIIMT [C8N],3.4
7,VTIKHVAEGDFFTACLTDRGIIMT [C8E],3.57
8,VTIKHVAFGDFFTACLTDRGIIMT [C8F],2.28
9,VTIKHVAYGDFFTACLTDRGIIMT [C8Y],3.47
10,VTIKHVAQGDFFTACLTDRGIIMT [C8Q],3.4
11,VTIKHVADGDFFTACLTDRGIIMT [C8D],3.33
12,VTIKHVATGDFFTACLTDRGIIMT [C8T],2.44
13,VTIKHVAIGDFFTACLTDRGIIMT [C8I],2.51
14,VTIKHVAWGDFFTACLTDRGIIMT [C8W],2.41
15,VTIKHVAPGDFFTACLTDRGIIMT [C8P],2.4
16,VTIKHVACGHFFTACLTDRGIIMT [D10H],3.8
17,VTIKHVACGYFFTACLTDRGIIMT [D10Y],2.44
18,VTIKHVACGRFFTACLTDRGIIMT [D10R],2.3
19,VTIKHVACGLFFTACLTDRGIIMT [D10L],2.26

row,Variant,protein stability index
1,VTIKHVACGVFFTACLTDRGIIMT [D10V],2.91
2,VTIKHVACGNFFTACLTDRGIIMT [D10N],1.59
3,VTIKHVACGWFFTACLTDRGIIMT [D10W],2.4
4,VTIKHVACGCFFTACLTDRGIIMT [D10C],2.56
5,VTIKHVACGKFFTACLTDRGIIMT [D10K],3.54
6,VTIKHVACGTFFTACLTDRGIIMT [D10T],2.71
7,VTIKHVACGMFFTACLTDRGIIMT [D10M],3.29
8,VTIKHVACGEFFTACLTDRGIIMT [D10E],3.23
9,VTIKHVACGIFFTACLTDRGIIMT [D10I],3.11
10,VPIKHVACGDFFTACLTDRGIIMT [T2P],3.12
11,VCIKHVACGDFFTACLTDRGIIMT [T2C],2
12,VSIKHVACGDFFTACLTDRGIIMT [T2S],2.88
13,VRIKHVACGDFFTACLTDRGIIMT [T2R],2.24
14,VFIKHVACGDFFTACLTDRGIIMT [T2F],3.64
15,VYIKHVACGDFFTACLTDRGIIMT [T2Y],3.11
16,VDIKHVACGDFFTACLTDRGIIMT [T2D],2.1
17,VWIKHVACGDFFTACLTDRGIIMT [T2W],2.38
18,VIIKHVACGDFFTACLTDRGIIMT [T2I],2.48
19,VMIKHVACGDFFTACLTDRGIIMT [T2M],3.25

row,Variant,protein stability index
1,VGIKHVACGDFFTACLTDRGIIMT [T2G],3.03
2,VEIKHVACGDFFTACLTDRGIIMT [T2E],2.31
3,VKIKHVACGDFFTACLTDRGIIMT [T2K],2.06
4,VTHKHVACGDFFTACLTDRGIIMT [I3H],2.67
5,VTTKHVACGDFFTACLTDRGIIMT [I3T],3.18
6,VTPKHVACGDFFTACLTDRGIIMT [I3P],2.31
7,VTYKHVACGDFFTACLTDRGIIMT [I3Y],2.57
8,VTRKHVACGDFFTACLTDRGIIMT [I3R],2.22
9,VTQKHVACGDFFTACLTDRGIIMT [I3Q],2.49
10,VTNKHVACGDFFTACLTDRGIIMT [I3N],2.55
11,VTLKHVACGDFFTACLTDRGIIMT [I3L],2.32
12,VTKKHVACGDFFTACLTDRGIIMT [I3K],1.92
13,VTVKHVACGDFFTACLTDRGIIMT [I3V],2.27
14,VTAKHVACGDFFTACLTDRGIIMT [I3A],1.28
15,VTGKHVACGDFFTACLTDRGIIMT [I3G],2.58
16,VTDKHVACGDFFTACLTDRGIIMT [I3D],3.11
17,VTSKHVACGDFFTACLTDRGIIMT [I3S],2.69
18,VTEKHVACGDFFTACLTDRGIIMT [I3E],2.6
19,VTFKHVACGDFFTACLTDRGIIMT [I3F],3.2

# Variants of: B2
# Experiment: as above
# Settings: c terminus: a fixed tail appended
row,Variant,protein stability index
1,YIKVDWQRVEKDMKKAKEQLKIFK [R23F],1.57
2,YIKVDWQRVEKDMKKAKEQLKIPK [R23P],1.63
3,YIKVDWQRVEKDMKKAKEQLKIKK [R23K],2.6
4,YIKVDWQRVEKDMKKAKEQLKITK [R23T],2.19
5,YIKVDWQRVEKDMKKAKEQLKIAK [R23A],2.08
6,YIKVDWQRVEKDMKKAKEQLKIYK [R23Y],1.67
7,YIKVDWQRVEKDMKKAKEQLKISK [R23S],2.02
8,YIKVDWQRVEKDMKKAKEQLKIGK [R23G],1.69
9,YIKVDWQRVEKDMKKAKEQLKIVK [R23V],2.26
10,YIKVDWQRVEKDMKKAKEQLKINK [R23N],3.5
11,YIKVDWQRVEKDMKKAKEQLKIIK [R23I],2.79
12,YIKVDWQRVEKDMKKAKEQLKIHK [R23H],1.9
13,YIKVDWQRVEKDMKKAKEQLKIMK [R23M],1.97
14,YIKVDWQRVEKDMKKAKEQLKIEK [R23E],1.76
15,YIKVDWQRVEKDMKKAKEQLKILK [R23L],1.6
16,YIKVDWQRVEKDMKKAKEQLKIQK [R23Q],2.07
17,YIKVDWQRVEKDMKKAKEQLKIDK [R23D],2.06
18,YIKVDWQRVEKDMKKAKEQLKICK [R23C],1.57
19,YIKVDWQRVEKDMKKAKEQLKIWK [R23W],1.59

row,Variant,protein stability index
1,YIKVDWQRVEKDMKKAKEQLKIRP [K24P],1.6
2,YIKVDWQRVEKDMKKAKEQLKIRE [K24E],2.03
3,YIKVDWQRVEKDMKKAKEQLKIRS [K24S],1.67
4,YIKVDWQRVEKDMKKAKEQLKIRA [K24A],2.81
5,YIKVDWQRVEKDMKKAKEQLKIRL [K24L],2.16
6,YIKVDWQRVEKDMKKAKEQLKIRQ [K24Q],1.31
7,YIKVDWQRVEKDMKKAKEQLKIRF [K24F],1.52
8,YIKVDWQRVEKDMKKAKEQLKIRM [K24M],1.31
9,YIKVDWQRVEKDMKKAKEQLKIRG [K24G],1.85
10,YIKVDWQRVEKDMKKAKEQLKIRN [K24N],2.07
11,YIKVDWQRVEKDMKKAKEQLKIRW [K24W],1.69
12,YIKVDWQRVEKDMKKAKEQLKIRH [K24H],2.12
13,YIKVDWQRVEKDMKKAKEQLKIRR [K24R],1.12
14,YIKVDWQRVEKDMKKAKEQLKIRY [K24Y],1.38
15,YIKVDWQRVEKDMKKAKEQLKIRC [K24C],2.47
16,YIKVDWQRVEKDMKKAKEQLKIRT [K24T],1.76
17,YIKVDWQRVEKDMKKAKEQLKIRD [K24D],2.02
18,YIKVDWQRVEKDMKKAKEQLKIRV [K24V],2.61
